Results published in IntAct's records for PubMed 31147388.

B1: Protein tost-1 (Caenorhabditis elegans), Q18490 (parent)
chain: MTTAIQYQVIPLADREHSNKVASILENKYKTATNKRITLNERFGVLEKGYTIQATEPETVKNDSDVFFVVHDRNLNSKKEFVENYLAKNPIVNSPEKVFEEEDKENAPTKKAVLKPSSTDEKKLTSSDIYIQEITRSILQSV
partner: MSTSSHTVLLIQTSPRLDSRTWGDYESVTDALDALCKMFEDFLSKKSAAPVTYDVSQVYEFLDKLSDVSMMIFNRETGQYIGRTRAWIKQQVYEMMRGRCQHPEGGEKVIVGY
B2: Protein pid-1 (Caenorhabditis elegans), Q19541 (parent)
chain: MSAKREFSHITLASTPFKKRIDQNSLKTDSDIEKDTNIAHKCAERFNYNTNLHRKVTLSDRFELAALGYEMKAKPRTIIEKHNDCDEFHFIYRKEKKNDYGTGSPLSAGLSLSNPLPAGRGFLSPAIQNTSNQFTFSGSPRITPQKHTPVSANHKPARSIFDDIPSNIA
partner: B1 partner

Variants of: B1
Conditions: with erh2_caeel erh-2, Q20057

Question: For MTTAIQYQVIPLADREHSNKVASILENKYKTATNKRITLNECFGVLEKGYTIQATEPETVKNDSDVFFVVHDRNLNSKKEFVENYLAKNPIVNSPEKVFEEEDKENAPTKKAVLKPSSTDEKKLTSSDIYIQEITRSILQSV, which “effect of a mutation on the interaction” value is on record?
Answer: disrupting interaction strength

Variants of: B2
Conditions: with erh2_caeel erh-2, Q20057

Question: How did the “effect of a mutation on the interaction” value turn out when MSAKREFSHITLASTPFKKRIDQNSLKTDSDIEKDTNIAHKCAERFNYNTNLHRKVTLSDCFELAALGYEMKAKPRTIIEKHNDCDEFHFIYRKEKKNDYGTGSPLSAGLSLSNPLPAGRGFLSPAIQNTSNQFTFSGSPRITPQKHTPVSANHKPARSIFDDIPSNIA was run?
Answer: decreasing interaction strength

Variants of: B2
Conditions: with erh2_caeel erh-2, Q20057
Remark: another data set of the same source

Question: MSAKREFSHITLASTPFKKRIDQNSLKTDSDIEKDTNIAHKCAERFNYNTNLHRKVTLSDCFELAALGYEMKAKPRTIIEKHNDCDEFHFIYRKEKKNDYGTGSPLSAGLSLSNPLPAGRGFLSPAIQNTSNQFTFSGSPRITPQKHTPVSANHKPARSIFDDIPSNIA was tested. Which “effect of a mutation on the interaction” value did it give?
Answer: disrupting interaction strength
